From PMC11180174 (Nature Communications, 2024)

B1: neutralizing antibody 7F3 (antibody, V domains shown)
VH: EVQLVESGGGLVKPGRSLRLSCTASGFTFGDYAMSWFRQAPGKGLEWVGFIRSKAYGGTTEYAASVKGRFTISRDDSKSIAYLQMNSLKTEDTAVYYCTRDRYARYDILTGLSPAGADYFYYAMDVWGQGTTVTVSS
VL: EIVLTQSPATLSLSPGERATLSCRASQSVSSYLAWYQQKPGQAPRLLIYDASNRATGIPARFSGSGSGTDFTLTISSLEPEDFAVYYCQQRSNWPQYTFGQGTKLEIK
B2: 7F3 neutralizing antibody (IgG) (antibody, V domains shown)
VH: B1 VH
VL: B1 VL
B3: LY-CoV1404 (also known as bebtelovimab) (antibody, V domains shown)
VH: QITLKESGPTLVKPTQTLTLTCTFSGFSLSISGVGVGWLRQPPGKALEWLALIYWDDDKRYSPSLKSRLTISKDTSKNQVVLKMTNIDPVDTATYYCAHHSISTIFDHWGQGTLVTVSS
VL: QSALTQPASVSGSPGQSITISCTATSSDVGDYNYVSWYQQHPGKAPKLMIFEVSDRPSGISNRFSGSKSGNTASLTISGLQAEDEADYYCSSYTTSSAVFGGGTKLTVL
notes: control antibody
B4: LY-CoV1404 (bebtelovimab) (antibody, V domains shown)
VH: B3 VH
VL: B3 VL

Experiments:
[1] = target: T1, SARS-CoV-2 (Wuhan-Hu-1 strain) wild-type RBD, His-tagged (SARS-CoV-2 Wuhan-Hu-1 (MN908947.3), UniProt P0DTC2); test: BLI; conditions: both partners purified
T1 construct: source: HEK293F, transiently transfected, purified (Ni Sepharose); not shown: 8xHis, C-terminal, kept

[2] = target: T2, SARS-CoV-2 (Wuhan-Hu-1 strain) wild-type spike RBD-His (SARS-CoV-2 Wuhan-Hu-1 (MN908947.3), UniProt P0DTC2); test: BLI; conditions: both partners purified
T2 construct: source: HEK293F, transfected, purified (Ni Sepharose); not shown: His8, C-terminal, kept

Row | Binder | Kd [1] [pM] | koff [1] [s⁻¹] | kon [1] [M⁻¹ s⁻¹] | Kd [2] [pM] | koff [2] [s⁻¹] | kon [2] [M⁻¹ s⁻¹]
1 | B1 | < 1 | < 1e-07 | 192000 | – | – | –
2 | B2 | – | – | – | < 1 | < 1e-07 | 192000
3 | B3 | < 1 | < 1e-07 | 79100 | – | – | –
4 | B4 | – | – | – | < 1 | < 1e-07 | 79100
